Source: patent publication US20250295799A1 (Zymeworks, published 2025)
Where a chain is given by its changes, count along the chain named.

B1: codrituzumab (v37575) (antibody, human IgG1, kappa, V domains shown)
VH: QVQLVQSGAEVKKPGASVKVSCKASGYTFTDYEMHWVRQAPGQGLEWMGALDPKTGDTAYSQKFKGRVTLTADKSTSTAYMELSSLTSEDTAVYYCTRFYSYTYWGQGTLVTVSS
VL: DVVMTQSPLSLPVTPGEPASISCRSSQSLVHSNRNTYLHWYLQKPGQSPQLLIYKVSNRFSGVPDRFSGSGSGTDFTLKISRVEAEDVGVYYCSQNTHVPPTFGQGTKLEIKR
notes: also called GC33; RG-7686
B2: H18L6_LC_G34H mAb, v40205 (antibody, human IgG1, kappa, V domains shown)
VH: QVQLVQSGAEVKKPGSSVKVSCKASGYTFTDYEMHWVKQAPGHGLEWIGAIDPETGDTAYNQKFKGKATLTADTSTSTAYMELSSLRSEDTAVYYCTRYFSFAYWGQGTLVTVSS
VL: EIVLTQSPATLSLSPGERATISCRSSQSLRHSNHNTYLQWYQQKPGQAPRLLIYKVSNRFSGVPARFSGSGSGTDFTLTISSLEPEDFAVYFCYQSKHVPYTFGGGTKVEIKR
notes: M3-H18L6 chains with the stated light chain point mutation, IgG1/kappa
B3: H18L6_LC_G34S mAb, v40210 (antibody, human IgG1, kappa, V domains shown)
VH: B2 VH
VL: B2 VL with H34S
notes: as for B2
B4: H18L6_LC_G34T mAb, v40209 (antibody, human IgG1, kappa, V domains shown)
VH: B2 VH
VL: B2 VL with H34T
notes: as for B2
B5: H18L6_LC_G34V mAb, v40211 (antibody, human IgG1, kappa, V domains shown)
VH: B2 VH
VL: B2 VL with H34V
notes: as for B2
B6: H18L6_LC_N33E mAb, v40213 (antibody, human IgG1, kappa, V domains shown)
VH: B2 VH
VL: B2 VL with N33E, H34G
notes: as for B2
B7: v40203, H18L6_LC_G34D mAb (antibody, human IgG1, kappa, V domains shown)
VH: B2 VH
VL: B2 VL with H34D
B8: v40204, H18L6_LC_G34E mAb (antibody, human IgG1, kappa, V domains shown)
VH: B2 VH
VL: B2 VL with H34E
notes: no number given for this variant
B9: v40205, H18L6_LC_G34H mAb (antibody, human IgG1, kappa, V domains shown)
VH: B2 VH
VL: B2 VL
notes: as for B8
B10: v38592, M3-H18L6 (WT) mAb (antibody, human IgG1, kappa)
heavy: not shown
light: EIVLTQSPATLSLSPGERATISCRSSQSLRHSNGNTYLQWYQQKPGQAPRLLIYKVSNRFSGVPARFSGSGSGTDFTLTISSLEPEDFAVYFCYQSKHVPYTFGGGTKVEIKRTVAAPSVFIFPPSDEQLKSGTASVVCLLNNFYPREAKVQWKVDNALQSGNSQESVTEQDSKDSTYSLSSTLTLSKADYEKHKVYACEVTHQGLSSPVTKSFNRGEC
notes: Same as v37574 but the heavy chain cDNA encodes a C-terminal lysine; also called wild-type M3-H18L6
B11: H18L6_LC_N33A mAb, v40219 (antibody, human IgG1, kappa, V domains shown)
VH: B2 VH
VL: B2 VL with N33A, H34G
notes: as for B2
B12: H18L6_LC_N33D mAb, v40222 (antibody, human IgG1, kappa, V domains shown)
VH: B2 VH
VL: B2 VL with N33D, H34G
notes: as for B2
B13: H18L6_LC_N33H mAb, v40218 (antibody, human IgG1, kappa, V domains shown)
VH: B2 VH
VL: B2 VL with N33H, H34G
notes: as for B2
B14: H18L6_LC_N33K mAb, v40217 (antibody, human IgG1, kappa, V domains shown)
VH: B2 VH
VL: B2 VL with N33K, H34G
notes: as for B2
B15: H18L6_LC_N33Q mAb, v40220 (antibody, human IgG1, kappa, V domains shown)
VH: B2 VH
VL: B2 VL with N33Q, H34G
notes: as for B2
B16: H18L6_LC_N33R mAb, v40216 (antibody, human IgG1, kappa, V domains shown)
VH: B2 VH
VL: B2 VL with N33R, H34G
notes: as for B2
B17: H18L6_LC_N33S mAb, v40221 (antibody, human IgG1, kappa, V domains shown)
VH: B2 VH
VL: B2 VL with N33S, H34G
notes: as for B2
B18: H18L6_LC_N33T mAb, v40214 (antibody, human IgG1, kappa, V domains shown)
VH: B2 VH
VL: B2 VL with N33T, H34G
notes: as for B2
B19: H18L6_LC_N33V mAb, v40215 (antibody, human IgG1, kappa, V domains shown)
VH: B2 VH
VL: B2 VL with N33V, H34G
notes: as for B2

What follows are binders tested against T1, cynomolgus monkey glypican-3 (GPC3) (cynomolgus monkey, UniProt A5A6P7 25-554 (Pan troglodytes entry)) (assay: flow cytometry on CHO-S cells transfected with cynomolgus GPC3;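 further: antibodies incubated 24 h at 4 °C with transiently transfected cells, binding read as AF647 geometric mean fluorescence of live cells, GFP-transfected cells as negative control, Hill-slope specific-binding fit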).
T1 construct: Transiently expressed on CHO-S cells; also called cynoGPC3; CynoGPC3-CHO
Procedure: (§1) Briefly, CHO—S cells were transiently transfected for −24 hours with a pTT5-based expression plasmid encoding human GPC3 or cynomolgus monkey GPC3, 0.5 μg DNA per 1 million cells, using the Neon™ Transfection System (Thermo Fisher Scientific Corp., Waltham, MA), to transiently express human or cynomolgus monkey GPC3. Cells transfected with GFP were used as negative transfection controls. Following transfection, cells were seeded at 50,000 cells/well in V-bottom 96-well plates and treated with antibody for 24 hours at 4° C. to prevent internalization. […] Following incubation and washing, fluorescence was detected by flow cytometry on a BD LSRFortessa™ Cell Analyzer (BD Biosciences, Franklin Lake, NJ) with 1,000 minimum events collected per well. AF647/APC-A GeoMean (fluorescence signal geometric mean, proportional to anti-Human AF647 binding) in live cell population was plotted against antibody concentration using GraphPad Prism Version 9 (GraphPad Software, San Diego, CA). The Bmax and Kd values were derived from the “Specific binding with Hill slope” nonlinear regression curve fit in GraphPad Prism Version 9.
Wherever JHH-5 Internalization (MFI) is given: test concentration or dose not given here.
Wherever JHH-7 Internalization (MFI) is given: test concentration or dose not given here.

Row | Binder | Bmax (MFI) | Kd [nM]
1 | B1 | 3280 | 0.09
2 | B2 | 2990 | 0.14
3 | B3 | 2970 | 0.09
4 | B4 | 2840 | 0.14
5 | B5 | 2640 | 0.17
6 | B6 | 2320 | 0.22

The binders below were run against T2, human glypican-3 (GPC3) (human, UniProt P51654 25-554) (assay: flow cytometry on CHO-S cells transfected with human GPC3;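 further: antibody binding to transiently transfected CHO-S cells after 24 hours at 4 °C, read as geometric mean fluorescence of anti-human AF647 in live cells, fitted against antibody concentration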).
T2 construct: Endogenous on JHH-7, JHH-5, HepG2 and NCI-H446 tumour cells, or transiently expressed on CHO-S cells from a pTT5 plasmid; also called hGPC3; huGPC3
Procedure: as §1

Row | Binder | Bmax (MFI) | Kd [nM]
7 | B1 | 2660 | 0.08
8 | B2 | 2460 | 0.1
9 | B3 | 2360 | 0.06
10 | B4 | 2320 | 0.11
11 | B5 | 2100 | 0.11
12 | B6 | 1860 | 0.25

What follows are binders tested against T3, recombinant cynomolgus GPC3 (glypican-3) (cynomolgus monkey, UniProt A0A2K5VK50 24-558) (assay: SPR; Kd on human GPC3 divided by Kd on cynomolgus GPC3).
T3 construct: also called cynoGPC3
Procedure: (§2) CM5 Series S sensor chip, Biacore™ amine coupling kit (NHS, EDC and 1 M ethanolamine), and 10 mM sodium acetate buffers were purchased from Cytiva Life Sciences (Mississauga, ON, Canada). PBS running buffer with 0.05% Tween20 (PBST) was purchased from Teknova Inc. (Hollister, CA). Antigens: recombinant human and cynomolgus GPC3 was purchased from ACROBiosystems (Newark, DE) and SEC purified on a Superdex 200 10/300 GL column (Cytiva) in PBST running buffer at 0.8 mL/min.
(§3) Screening of the antibodies for binding to GPC3 antigen was conducted via anti-Fc capture of antibodies, followed by the injection of five concentrations of GPC3. The anti-Fc surface was prepared on a CM5 Series S sensor chip by standard amine coupling methods as described by the manufacturer (Cytiva Life Sciences, Mississauga, ON, Canada). […] Approximately 150-400 RUs of each antibody (5-20 μg/mL) were captured on the goat anti-human IgG surface by injecting at 10 μL/min for 60s. Using single-cycle kinetics, five concentrations of a two-fold dilution series of human or cynomolgus GPC3 starting at 40 nM, 20 nM, 10 nM, or 5 nM depending on the antibody, with a blank buffer control were injected at 20 μL/min for 180s of contact time, followed by 180 s dissociation phase, resulting in sensorgrams with a buffer blank reference. The anti-Fc surface was regenerated to prepare for the next injection cycle by one pulse of 10 mM glycine/HCl pH 1.5 for 120 s at 40 μL/min. Blank-subtracted sensorgrams were analyzed and fit to the 1:1 Langmuir binding model using Biacore™ T200 Evaluation Software v3.2.

Row | Binder | Kd Fold difference (hu/cyno) [fold]
13 | B7 | 1.2
14 | B8 | 1.19
15 | B9 | 1.19

What follows are binders tested against T2, human glypican-3 (GPC3) (assay: flow cytometry on JHH-5 cells (GPC3-mid);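 further: antibody binding to cells at 4 °C for 24 h, detected with anti-human AF647 as geometric mean fluorescence of live cells versus antibody concentration, fitted by specific binding with Hill slope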).
Procedure: Briefly, cells were seeded at 50,000 cells/well in V-bottom 96-well plates and treated with antibody for 24 hours at 4° C. to prevent internalization. […] Following incubation and washing, fluorescence was detected by flow cytometry on a BD LSRFortessa™ Cell Analyzer (BD Biosciences, Franklin Lake, NJ) with 1,000 minimum events collected per well. AF647/APC-A GeoMean (fluorescence signal geometric mean, proportional to anti-Human AF647 binding) in live cell population was plotted against antibody concentration using GraphPad Prism Version 9 (GraphPad Software, San Diego, CA). The Bmax, Curve Hill Slope (h) and Kd values were derived from the “Specific binding with Hill slope” nonlinear regression curve fit in GraphPad Prism Version 9.

Row | Binder | Bmax (MFI) | Kd [nM]
16 | B1 | 5590 | 0.19
17 | B2 | 4580 | 0.16
18 | B3 | 4140 | 0.1
19 | B4 | 4130 | 0.11
20 | B5 | 2940 | 0.24
21 | B6 | 1940 | 3.39

What follows are binders tested against T4, recombinant human GPC3 (glypican-3) (human, UniProt P51654 25-559) (assay: SPR (Biacore T200), antibody captured by anti-Fc, GPC3 injected, single-cycle kinetics, 1:1 fit; average).
T4 construct: also called huGPC3; hGPC3
Procedure: as §2, §3

Row | Binder | Kd [nM]
22 | B10 | 7.14
23 | B7 | 13.7
24 | B8 | 14.9
25 | B9 | 10.4

Each binder was assayed against T2, human glypican-3 (GPC3) (assay: flow cytometry on JHH-7 cells (GPC3-high);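 further: antibody binding at 4 °C for 24 h, detected with anti-human AF647 secondary, geometric mean fluorescence of live cells versus antibody concentration, fitted as specific binding with Hill slope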).

Row | Binder | Bmax (MFI) | Kd [nM]
26 | B1 | 14800 | 0.31
27 | B2 | 12500 | 0.43
28 | B3 | 10600 | 0.42
29 | B4 | 10900 | 0.42
30 | B5 | 7420 | 0.4
31 | B11 | 7870 | 0.62
32 | B12 |  | > 47
33 | B13 | 8070 | 0.77
34 | B14 | 9230 | 0.56
35 | B15 | 7220 | 0.67
36 | B16 | 9650 | 0.67
37 | B17 | 7220 | 0.79
38 | B18 | 9990 | 0.75
39 | B19 | 9540 | 1.01

Each binder was assayed against T4, recombinant human GPC3 (glypican-3) (assay: SPR (Biacore T200), antibody captured by anti-Fc, GPC3 injected).
Procedure: as §2, §3

Row | Binder | Avg % binding huGPC3 (RU observed/theoretical) [%]
40 | B10 | 51.9
41 | B7 | 44.1
42 | B8 | 43
43 | B9 | 43.5

The binders below were run against T3, recombinant cynomolgus GPC3 (glypican-3) (assay: SPR (Biacore T200), antibody captured by anti-Fc, GPC3 injected, single-cycle kinetics, 1:1 fit; average).
Procedure: as §2, §3

Row | Binder | Kd [nM]
44 | B10 | 4.54
45 | B7 | 11.5
46 | B8 | 12.5
47 | B9 | 8.79

The binders below were run against T2, human glypican-3 (GPC3) (assay: cell-based or functional assay).

Row | Binder | JHH-5 Internalization (MFI) | JHH-7 Internalization (MFI)
48 | B1 | 8770 | 6560
49 | B2 | 9170 | 7320
50 | B3 | 8950 | 8900
51 | B4 | 9280 | 9040
52 | B5 | 3560 | 3330
53 | B6 | 1200 | 1220
